Measurements reported in patent US11448657B2, “Methods and kits for assessing Heparanase procoagulant activity, compositions comprising Heparanase, and methods for the treatment of coagulation-related disorders” (RAMBAM MED-TECH, priority 2011, dated 2022).

Tests used:
[1] = tested on: TF-heparanase interaction; experiment: Co-immunoprecipitation of TF and heparanase; format: binding, human; settings: purified TF and GS3 active heparanase 1 μg/mL each
Procedure: FIGS. 7A-7B: Direct interaction between heparanase and TF FIG. 7A. Co-immunoprecipitation. Purified TF (1 μg/mL) and GS3 active heparanase (1 μg/mL) proteins were incubated with beads coupled to polyclonal anti-TF (upper panel), or anti-heparanase (lower panel) antibodies. Bound proteins were analyzed by immunoblotting for the presence of heparanase (upper panel) or TF (lower panel), using the respective monoclonal antibody.
The interaction between TF and heparanase was analyzed by co-immunoprecipitation (Co-IP). The ProFound™ Co-Immunoprecipitation Kit in which the antibody is coupled to gel support, was employed according to the manufacturer's instruction (Pierce, Rockford, Ill., USA). Briefly, coupling gel was washed with coupling buffer. Polyclonal anti-TF or polyclonal anti-heparanase (1453) antibodies (100 μg) and 5 M sodium cyanoborohydride, were added to the gel support and incubated at 4° C. for 4 hours. The gel was then washed with quenching buffer and incubated with the quenching buffer and sodium cyanoborohydride at 20° C. for 30 minutes. Next, the gel was washed 4 times with wash solution, once with elution buffer, and twice with coupling buffer. Purified proteins (0.5 μg) were added to the gel and incubated for 2 hours at 4° C. […]

ICR mice = experiment: LPS-induced sepsis in ICR mice; format: in vivo
Procedure: FIG. 19: IL-6 as a marker of sepsis severity Heparanase, LPS and LPS+heparanase were injected intra-peritoneal to ICR mice. Four hours later the blood was drawn and IL-6 level was measured by ELISA.
Heparanase, LPS and LPS+heparanase were injected intra-peritoneal to ICR mice. Four hours later the blood was drawn and thrombin-antithrombin (TAT) (20A) and D-dimer (20B) levels were evaluated by ELISA. Levels of TAT and D-dimer were reduced in the LPS+heparanase group compared to LPS alone in accordance with a severe activation of the coagulation system (p<0.05).
Methods: ICR mice, heparanase knock-out mice and heparanase over-expression mice were studied. Sepsis was induced by intra-peritoneal injection of lipopolysaccharides (LPS). Inhibitory peptides to TF/heparanase complex (number 11, 22, 5, 6, 7, 12, and 21 [SEQ IDs: 1-7]) were injected intra-peritoneal half an hour after heparanase or LPS. After 4 hours blood was obtained via sub-mandibular plexus puncture followed by mice sacrificing. Levels of thrombin-antithrombin (TAT), D-Dimer and IL-6 were tested using ELISA. Western blot to plasma factor VII and immunostaining of fibrinogen in lung, kidney and spleen were performed.

normal human plasma = experiment: Factor Xa generation in pooled normal human plasma; format: biochemical; settings: factor VIIa and factor X added, 15 min 37° C.
Procedure: Increasing doses of heparanase were added to pooled normal human plasma (25 μL plasma). After 15 min at 37° C., chromogenic substrate for the detection of factor Xa was added (1 mM). The mean value±SD of three independent experiments is shown. Note a 7- to 8-fold increase in coagulation activity in the presence of heparanase.
Next, the procoagulant effect of heparanase in human plasma was tested. Using an ELISA method [Shafat I. et al., Biochem Biophys Res. Commun. […] When heparanase, factor VIIa and factor X were incubated (15 min, 37° C.) with pooled normal human plasma from five healthy donors, followed by the addition of a chromogenic substrate for factor Xa, a 7- to 8-fold increase in factor Xa levels was obtained com-pared to levels in plasma incubated in the absence of heparanase (FIG. 2). In this condition the coagulation was mainly dependent on the concentration of endogenous TF, as described previously [Suefuji H. et al., Am Heart J. 1997, 134(2 Pt. 1):253-259; Kim H K et al., Cardiology. 2000, 93(1-2):31-36]. The effect of heparanase was also tested in whole blood using thromboelastography. Citrated blood samples from healthy donors to which factor VIIa (0.04 μM) and factor X (1.4 μM) were added were recalcified according to the manufacturer's recommendations (final concentration of CaCl2) 8 mM) and arranged in the disposable cups of the thromboelastogram. […]

[2] = LPS+heparanase compared to LPS alone, 4 hours
[3] = heparanase half an hour following LPS

interaction with TF [1]: interacts with TF
B1: heparanase: single chain GS3 active heparanase, comprised of the 8 kDa and 50 kDa heparanase heterodimer (8+50), recombinant human (protein, listed as Homo sapiens)
chain 1: DPAQDVVDLDFFTQEPLHLVSPSFLSVTIDANLATDPRFLILLGSPKLRTLARGLSPAYLRFGGTKTDFLIFDPKKE
chain 2: DPGKKFKNSTYSRSSVDVLYTFANCSGLDLIFGLNALLRTADLQWNSSNAQLLLDYCSSKGYNISWELGNEPNSFLKKADIFINGSQLGEDFIQLHKLLRKSTFKNAKLYGPDVGQPRRKTAKMLKSFLKAGGEVIDSVTWHHYYLNGRTATREDFLNPDVLDIFISSVQKVFQVVESTRPGKKVWLGETSSAYGGGAPLLSDTFAAGFMWLDKLGLSARMGIEVVMRQVFFGAGNYHLVDENFDPLPDYWLSLLFKKLVGTKVLMASVQGSKRRKLRVYLHCTNTDNPRYKEGDLTLYAINLHNVTKYLRLPYPFSNKQVDKYLLRPLGPHGLLSKSVQLNGLTLKMVDDQTLPPLMEKPLRPGSSLGLPAFSYSFFVIRNAKVAACI
modifications: single-chain GS3 linker
D-dimer level (ICR mice; [2]): reduced levels | IL-6 level (ICR mice; [2]): further augmented IL-6 level compared to LPS alone | TAT level (ICR mice; [2]): reduced levels | blood leak from puncture (ICR mice; [3]): profuse blood leak from puncture | factor VII by western blot (ICR mice; [3]): reduced levels | fibrinogen by immunostaining (ICR mice; [3]): reduced levels | levels of IL-1 (ICR mice; [3]): maximal levels of IL-1 | increase in coagulation activity (factor Xa levels) in plasma (normal human plasma): 7- to 8 fold
